Data set [1] has as its system MDA-MB-435S breast cancer cells. Type of data set: cell-based, human. The method, then: Twelve different fusion constructs were analyzed for anti-cancer activity in vitro against MDA-MB-435S breast cancer cells and for hemolytic activity in vitro to human red blood cells. Fusion constructs of the following sequence were tested:
(§1) The peptide conjugates were freshly dissolved in saline and added into cancer cell seeded multi-well plates at increasing concentrations of 0, 0.001, 0.01, 0.1, 1, 2, 5, 10 and 100 μM. Incubations were conducted for 4 h at 37° C. Cell viability was determined using formazan conversion assays (MTT assays). Controls were treated with USP saline or 0.1% TritonX-100™ as reference for 0 and 100% cell death, respectively. Cytotoxicity was evaluated as an IC50 value.

In a further data set the test system is human red blood cells. Description: Hemolytic activity. In kind it is cell-based. The method, then: Hemolytic activity was studied by incubating the fusion constructs with human red blood cells at concentrations of 0.01, 0.1, 1, 10 and 50 μM for 2 hours. Saline and 0.1% Triton served as controls.
Hemolytic activity of the compounds was studied by incubating EP-301 and EP-302 with human red blood cells at concentrations of 0.01, 0.1, 1, 10 and 50 μM for 2 hours.

Data set [2] relates to MDA-MB-435S breast cancer cells. Type of data set: cell-based, human. As to conditions: 24 h. How it is done:
as §1, with “EP-301 and EP-302 were analyzed for anti-cancer activity in vitro in a time course experiment against MDA-MB-435S breast cancer cells. EP-301 and EP-302” for “The peptide conjugates”, “0.25, 0.5, 1, 2, 4, 6 h or 24” for “4”, “value derived for EP-301 and EP-302 at each time point.” for “value.”

In data set [3] the target is T1, nucleolin expressed on the surface of human cancer cell lines (human, UniProt P19338). Description: cell-based or functional assay.
Data set [4] deals with nucleolin on CHO (Hamster Ovary) cells (hamster).
Data set [5] has as its target T1, nucleolin expressed on the surface of …. The data set can be described thus: cell-based or functional assay. The source holds these as a separate data set.
The target is the same in data set [6]. The data set can be described thus: cell-based or functional assay. This is another data set of the same source.
Data set [7] shares this target. The data set can be described thus: cell-based or functional assay. The source holds these as a separate data set.

Data on twelve molecules can be found in US20110124564A1, “NUCLEOLIN-BINDING PEPTIDES, NUCLEOLIN- BINDING LYTIC PEPTIDES, FUSION CONSTRUCTS AND METHODS OF MAKING AND USING SAME” (ESPERANCE PHARMACEUTICALS, INC., published 2011).

Read-outs that look alike come from different tables or passages of the source. Residues, ends and D or L forms follow the SMILES beside them.

Turning to `CC(C)C[C@H](NC(=O)[C@H](CCCNC(=N)N)NC(=O)[C@H](C)NC(=O)[C@H](CO)NC(=O)[C@H](CCCNC(=N)N)NC(=O)[C@H](CCCNC(=N)N)NC(=O)[C@H](CCC(N)=O)NC(=O)[C@H](CC(C)C)NC(=O)[C@H](CCCNC(=N)N)NC(=O)[C@H](CCCCN)NC(=O)[C@H](C)NC(=O)[C@H](Cc1ccccc1)NC(=O)[C@H](CCCCN)NC(=O)[C@H](CCCCN)NC(=O)[C@H](C)NC(=O)[C@H](Cc1ccccc1)NC(=O)[C@H](CCCCN)NC(=O)[C@H](C)NC(=O)[C@H](Cc1ccccc1)NC(=O)[C@H](CCCCN)NC(=O)[C@H](CCCCN)NC(=O)[C@H](C)NC(=O)[C@H](Cc1ccccc1)NC(=O)[C@H](CCCCN)NC(=O)[C@H](C)NC(=O)[C@H](Cc1ccccc1)NC(=O)[C@@H](N)CCCCN)C(=O)N[C@@H](CO)C(=O)N[C@@H](C)C(=O)N[C@@H](CCCCN)C(=O)O` (H-KFAKFAKKFAKFAKKFAKRLQRRSARLSAK-OH), the half-inhibitory concentration (IC50) in data set [1] (MDA-MB-435S, 4 h at 37° C, MTT, read-out: IC50) was determined as 2.2 ± 0.3 µM. In addition, the HA50 with human red blood cells (human red blood cells, 2 hours) is 56 µM; with human red blood cells (human red blood cells, 2 hours, listed as KFAKFAKKFAKFAICKFAKR19LQRRSARLSAK30), 56 ± 8.5 µM.
In data set [1] (4 h), `CC(C)C[C@H](NC(=O)[C@H](CCCNC(=N)N)NC(=O)[C@H](C)NC(=O)[C@@H](NC(=O)[C@H](CCCCN)NC(=O)[C@H](C)NC(=O)[C@H](Cc1ccccc1)NC(=O)[C@H](CCCCN)NC(=O)[C@H](CCCCN)NC(=O)[C@H](C)NC(=O)[C@H](Cc1ccccc1)NC(=O)[C@H](CCCCN)NC(=O)[C@H](C)NC(=O)[C@H](Cc1ccccc1)NC(=O)[C@H](CCCCN)NC(=O)[C@H](CCCCN)NC(=O)[C@H](C)NC(=O)[C@H](Cc1ccccc1)NC(=O)[C@H](CCCCN)NC(=O)[C@H](C)NC(=O)[C@H](Cc1ccccc1)NC(=O)[C@@H](N)CCCCN)C(C)C)C(=O)N[C@@H](CCC(N)=O)C(=O)N[C@@H](CCCNC(=N)N)C(=O)N[C@@H](CCCNC(=N)N)C(=O)N[C@@H](Cc1ccccc1)C(=O)N[C@@H](C)C(=O)O` (H-KFAKFAKKFAKFAKKFAKVARLQRRFA-OH) had an IC50 of 0.8 ± 0.16 µM. Moreover, the HA50 result in the data set with human red blood cells is recorded as “Not hemolytic”.
Take `CC(C)C[C@H](NC(=O)[C@H](CCCNC(=N)N)NC(=O)[C@H](C)NC(=O)[C@H](CO)NC(=O)[C@H](CCCNC(=N)N)NC(=O)[C@H](CCCNC(=N)N)NC(=O)[C@H](CCC(N)=O)NC(=O)[C@@H]1CCCN1C(=O)[C@H](CCC(=O)O)NC(=O)[C@H](CC(=O)O)NC(=O)[C@H](CCCCN)NC(=O)[C@H](CCCCN)NC(=O)[C@H](C)NC(=O)[C@H](Cc1ccccc1)NC(=O)[C@H](CCCCN)NC(=O)[C@H](CCCCN)NC(=O)[C@H](C)NC(=O)[C@H](Cc1ccccc1)NC(=O)[C@H](CCCCN)NC(=O)[C@H](C)NC(=O)[C@H](Cc1ccccc1)NC(=O)[C@H](CCCCN)NC(=O)[C@H](CCCCN)NC(=O)[C@H](C)NC(=O)[C@H](Cc1ccccc1)NC(=O)[C@H](CCCCN)NC(=O)[C@H](C)NC(=O)[C@H](Cc1ccccc1)NC(=O)[C@@H](N)CCCCN)C(=O)N[C@@H](CO)C(=O)N[C@@H](C)C(=O)N[C@@H](CCCCN)C(=O)O` [EP-301] (H-KFAKFAKKFAKFAKKFAKKDEPQRRSARLSAK-OH): the half-maximal inhibitory concentration (IC50) in data set [2] came to 12 µM; in data set [1] (4 h), 64.8 µM. Also, the HA50 result in the data set with human red blood cells was “Not hemolytic”.
Regarding RARLQRRSARLSAK, in data set [3], the “IC50 of cytotoxicity (MTT), MDA-MB-435S breast cancer cells, 120 h” value (“IC50 of cytotoxicity (MTT) … 120 h” below) stood at 2.4 µM.
Turning to KDEPQRRSARLSAK [F3-14 mer fragment], the “IC50 of cytotoxicity (MTT) … 120 h” value in data set [3] was determined as 11.1 µM.
As to RARLQRRSARLS [R1ARLQRRSARLS12], in data set [3], the “IC50 of cytotoxicity (MTT) … 120 h” value turned out to be 6.5 µM.
As to HAHLQRRSARLSAK [H1AHLQRRSARLSAK14], the “IC50 of cytotoxicity (MTT) … 120 h” value in data set [3] was 4.7 µM.
As for HARLQRRSARLSAK [H1ARLQRRSARLSAK14], the “IC50 of cytotoxicity (MTT) … 120 h” value in data set [3] came out at 3.2 µM.
For RARLQRRSARL [R1ARLQRRSARL11], the “IC50 of cytotoxicity (MTT) … 120 h” value in data set [3] was found to be 5.4 µM.
With RVRLQRRSARLSAK [R1VRLQRRSARLSAK14], the “IC50 of cytotoxicity (MTT) … 120 h” value in data set [3] was 1.9 µM.
Consider KFAKFAKKFAKFAKKFAKRARLQRRSARLSAK [EP-302], for which, in data set [4], the IC50 of cytotoxicity (MTT), CHO (Hamster Ovary) cells, 6 h was 3.1 µM and the IC50 of cytotoxicity (MTT), CHO (Hamster Ovary) cells, 24 h turned out to be 3.7 µM. In data set [5], the “IC50 of cytotoxicity (MTT), MDA-MB-435S breast cancer cells, time course, 30 minutes” value was 2.3 µM. The “IC50 of cytotoxicity (MTT), MDA-MB-435S breast cancer cells, 4 h” value in data set [6] was determined as 0.9 µM. Besides, in data set [7], the “IC50 of cytotoxicity (MTT), A549 (Lung) cells, 6 h” value turned out to be 4.3 µM; the “IC50 of cytotoxicity (MTT), A549 (Lung) cells, 24 h” value stood at 2.4 µM; the “IC50 of cytotoxicity (MTT), DU145 (Prostate) cells, 6 h” value worked out at 3.1 µM; the “IC50 of cytotoxicity (MTT), DU145 (Prostate) cells, 24 h” value was determined as 5.1 µM. In data set [7], the “IC50 of cytotoxicity (MTT), Daudi (NHL) cells, 6 h” value was 3.2 µM; the “IC50 of cytotoxicity (MTT), Daudi (NHL) cells, 24 h” value was found to be 2.5 µM; the “IC50 of cytotoxicity (MTT), HL60 (Acute Myeloid Leukemia) cells, 24 h” value worked out at 0.5 µM; the “IC50 of cytotoxicity (MTT), HT 29 (Colon) cells, 6 h” value was determined as 45.8 µM. In addition, in data set [7], the “IC50 of cytotoxicity (MTT), HT 29 (Colon) cells, 24 h” value amounted to 26.2 µM; the “IC50 of cytotoxicity (MTT), HT 116(Colon) cells, 6 h” value is 6.7 µM; the “IC50 of cytotoxicity (MTT), HT 116(Colon) cells, 24 h” value turned out to be 4.8 µM; the “IC50 of cytotoxicity (MTT), K562 (Chronic Myeloid Leukemia) cells, 24 h” value stood at 2.8 µM. Further, in data set [7], the “IC50 of cytotoxicity (MTT), LoVo (Colon) cells, 6 h” value worked out at 14.1 µM; the “IC50 of cytotoxicity (MTT), LoVo (Colon) cells, 24 h” value stood at 12.5 µM; the “IC50 of cytotoxicity (MTT), MCF-7 (Breast) cells, 6 h” value stood at 5.5 µM; the “IC50 of cytotoxicity (MTT), MCF-7 (Breast) cells, 24 h” value stood at 6.4 µM. Also, in data set [7], the “IC50 of cytotoxicity (MTT), MDA-MB-231 (Breast) cells, 6 h” value is 4.6 µM; the “IC50 of cytotoxicity (MTT), MDA-MB-231 (Breast) cells, 24 h” value turned out to be 3.6 µM; the “IC50 of cytotoxicity (MTT), MDA-MB-435S (Breast) cells, 6 h” value worked out at 1.4 µM; the “IC50 of cytotoxicity (MTT), MDA-MB-435S (Breast) cells, 24 h” value came out at 1.7 µM. In data set [7], the “IC50 of cytotoxicity (MTT), MV4-11(Acute Myeloid Leukemia) cells, 24 h” value worked out at 0.5 µM; the “IC50 of cytotoxicity (MTT), MiaPaCa (Pancreas) cells, 6 h” value came out at 2.1 µM; the “IC50 of cytotoxicity (MTT), MiaPaCa (Pancreas) cells, 24 h” value was determined as 1.9 µM; the “IC50 of cytotoxicity (MTT), OVCAR-3 (Ovary) cells, 6 h” value came to 5.2 µM. Also, in data set [7], the “IC50 of cytotoxicity (MTT), PC-3 (Prostate) cells, 6 h” value was 3.3 µM; the “IC50 of cytotoxicity (MTT), PC-3 (Prostate) cells, 24 h” value came out at 3.2 µM; the “IC50 of cytotoxicity (MTT), SKOV-3 (Ovary) cells, 6 h” value came to 5.1 µM; the “IC50 of cytotoxicity (MTT), SKOV-3 (Ovary) cells, 24 h” value was 5.2 µM.
With KFAKFAKKFAKFAKKFAKKDEPQRRSARLSAK [EP-301], in data set [5], the “IC50 of cytotoxicity (MTT), MDA-MB-435S breast cancer cells, time course, 30 minutes” value was found to be 48 µM; the “IC50 of cytotoxicity (MTT), MDA-MB-435S breast cancer cells, time course, 6 h” value was > 40 µM; the “IC50 of cytotoxicity (MTT), MDA-MB-435S breast cancer cells, time course, 24 h” value amounted to 12 µM. In addition, the “IC50 of cytotoxicity (MTT), MDA-MB-435S breast cancer cells, 4 h” value in data set [6] worked out at 64.8 µM.
